EC50 data for four molecules are collected here from patent US20240400715A1 (VIBRANT PHARMA, published 2024).

Where “and” joins values, the source holds several entries; their conditions need not be identical. Equal entries are not always repeated.

This test has as its target T1, human CD3 on Jurkat cells (human, UniProt P07766 23-207; P04234 22-171; P09693 23-182).
T1 construct: whole, on cells; CD3 complex as on Jurkat (Clone E6-1) cells; also called CD3 expressing cells (Jurkat)
Nature of the test: FACS, Jurkat cells.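 Also: flow cytometric binding of bispecific antibodies to Jurkat T cells, threefold serial dilutions incubated half an hour in the cold, EC50 taken from the fitted binding curve.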 On the technique in general: A flow cytometer gives signals particle by particle.

As usually defined, the EC50 is the concentration giving half of the maximal effect. Low readings indicate greater potency, high ones weaker potency.

Method: The binding of the bispecific antibodies was tested on the CA expressing human lung adenocarcinoma cell line (H1573) and the CD3 expressing immortalized T lymphocyte line (Jurkat). The steps are as follows: the cells were harvested, counted, and resuspended in FACS buffer (PBS containing 0.1% BSA) at 2×10⁶ cells/ml. 100 μl of cell suspension was incubated in a V-bottom 96-well plate at 4° C. with 3-fold serial dilutions of bispecific antibodies (20 μg/ml-0.009 μg/ml) for 30 minutes; washed twice with pre-cooled FACS buffer. […] GraphPadPrism was used to obtain the binding curve.

B1: 304 (TA5), configuration of FIG. 1W (bispecific antibody, IgG4)
heavy: DVQLVQSGAEVKKPGASVKVSCKASGYTFTRYTMHWVRQAPGQGLEWIGYINPSRGYTNYADSVKGRFTITTDKSTSTAYMELSSLRSEDTATYYCARYYDDHYCLDYWGQGTTVTVSSASTKGPSVFPLAPCSRSTSESTAALGCLVKDYFPEPVTVSWNSGALTSGVHTFPAVLQSSGLYSLSSVVTVPSSSLGTKTYTCNVDHKPSNTKVDKRVESKYGPPCPPCPAPEAAGGPSVFLFPPKPKDTLMISRTPEVTCVVVDVSQEDPEVQFNWYVDGVEVHNAKTKPREEQFNSTYRVVSVLTVLHQDWLNGKEYKCKVSNKGLPSSIEKTISKAKGQPREPQVYTLPPCQEEMTKNQVSLWCLVKGFYPSDIAVEWESNGQPENNYKTTPPVLDSDGSFFLYSRLTVDKSRWQEGNVFSCSVMHEALHNHYTQKSLSLSL
chain: EVQLVESGGGFVQAGESLTLSCTSSTLTFTPYRMAWYRQAPGKQRDLVADISSGDGRTTNYADFAKGRFTISRDNIKNTVFLRMTNLKPEDTAVYYCNTFVSFVGIARSWGQGTQVTVSSESKYGPPCPPCPAPEAAGGPSVFLFPPKPKDTLMISRTPEVTCVVVDVSQEDPEVQFNWYVDGVEVHNAKTKPREEQFNSTYRVVSVLTVLHQDWLNGKEYKCKVSNKGLPSSIEKTISKAKGQPREPQVCTLPPSQEEMTKNQVSLSCAVKGFYPSDIAVEWESNGQPENNYKTTPPVLDSDGSFFLVSRLTVDKSRWQEGNVFSCSVMHEALHNRFTQKSLSLSL
light: DIVLTQSPATLSLSPGERATLSCRASQSVSYMNWYQQKPGKAPKRWIYDTSKVASGVPARFSGSGSGTDYSLTINSLEAEDAATYYCQQWSSNPLTFGGGTKVEIK
notes: chains put together from VH/VL, CH1, knob-Fc; IgG4, kappa; not shown: kappa light chain constant domain (CL)
On to B1, for which the concentration giving a half-maximal response (EC50) is 0.101 µg/mL and 0.77 nM.

B2: 307 (TA2), configuration of FIG. 1X (bispecific antibody, IgG4)
heavy: QVQLVQSGGGVVQPGRSLRLSCKASGYTFTRYTMHWVRQAPGKGLEWIGYINPSRGYTNYNQKVKDRFTISRDNSKNTAFLQMDSLRPEDTGVYFCARYYDDHYCLDYWGQGTPVTVSSASTKGPSVFPLAPCSRSTSESTAALGCLVKDYFPEPVTVSWNSGALTSGVHTFPAVLQSSGLYSLSSVVTVPSSSLGTKTYTCNVDHKPSNTKVDKRVESKYGPPCPPCPAPEAAGGPSVFLFPPKPKDTLMISRTPEVTCVVVDVSQEDPEVQFNWYVDGVEVHNAKTKPREEQFNSTYRVVSVLTVLHQDWLNGKEYKCKVSNKGLPSSIEKTISKAKGQPREPQVYTLPPCQEEMTKNQVSLWCLVKGFYPSDIAVEWESNGQPENNYKTTPPVLDSDGSFFLYSRLTVDKSRWQEGNVFSCSVMHEALHNHYTQKSLSLSLGGGGSGGGGSEVQLVESGGGFVQAGESLTLSCTSSTLTFTPYRMAWYRQAPGKQRDLVADISSGDGRTTNYADFAKGRFTISRDNIKNTVFLRMTNLKPEDTAVYYCNTFVSFVGIARSWGQGTQVTVSS
chain: ESKYGPPCPPCPAPEAAGGPSVFLFPPKPKDTLMISRTPEVTCVVVDVSQEDPEVQFNWYVDGVEVHNAKTKPREEQFNSTYRVVSVLTVLHQDWLNGKEYKCKVSNKGLPSSIEKTISKAKGQPREPQVCTLPPSQEEMTKNQVSLSCAVKGFYPSDIAVEWESNGQPENNYKTTPPVLDSDGSFFLVSRLTVDKSRWQEGNVFSCSVMHEALHNRFTQKSLSLSL
light: DIQMTQSPSSLSASVGDRVTITCSASSSVSYMNWYQQTPGKAPKRWIYDTSKLASGVPSRFSGSGSGTDYTFTISSLQPEDIATYYCQQWSSNPFTFGQGTKLQIT
notes: chains put together from parts; IgG4, kappa; also called CEA-CD3 bispecific antibody 307; not shown: kappa light chain constant domain (CL)
For B2, the EC50 is 2.86 µg/mL and 22 nM.

B3: 310 (TA5), configuration of FIG. 1X (bispecific antibody, IgG4)
heavy: DVQLVQSGAEVKKPGASVKVSCKASGYTFTRYTMHWVRQAPGQGLEWIGYINPSRGYTNYADSVKGRFTITTDKSTSTAYMELSSLRSEDTATYYCARYYDDHYCLDYWGQGTTVTVSSASTKGPSVFPLAPCSRSTSESTAALGCLVKDYFPEPVTVSWNSGALTSGVHTFPAVLQSSGLYSLSSVVTVPSSSLGTKTYTCNVDHKPSNTKVDKRVESKYGPPCPPCPAPEAAGGPSVFLFPPKPKDTLMISRTPEVTCVVVDVSQEDPEVQFNWYVDGVEVHNAKTKPREEQFNSTYRVVSVLTVLHQDWLNGKEYKCKVSNKGLPSSIEKTISKAKGQPREPQVYTLPPCQEEMTKNQVSLWCLVKGFYPSDIAVEWESNGQPENNYKTTPPVLDSDGSFFLYSRLTVDKSRWQEGNVFSCSVMHEALHNHYTQKSLSLSLGGGGSGGGGSEVQLVESGGGFVQAGESLTLSCTSSTLTFTPYRMAWYRQAPGKQRDLVADISSGDGRTTNYADFAKGRFTISRDNIKNTVFLRMTNLKPEDTAVYYCNTFVSFVGIARSWGQGTQVTVSS
chain: ESKYGPPCPPCPAPEAAGGPSVFLFPPKPKDTLMISRTPEVTCVVVDVSQEDPEVQFNWYVDGVEVHNAKTKPREEQFNSTYRVVSVLTVLHQDWLNGKEYKCKVSNKGLPSSIEKTISKAKGQPREPQVCTLPPSQEEMTKNQVSLSCAVKGFYPSDIAVEWESNGQPENNYKTTPPVLDSDGSFFLVSRLTVDKSRWQEGNVFSCSVMHEALHNRFTQKSLSLSL
light: DIVLTQSPATLSLSPGERATLSCRASQSVSYMNWYQQKPGKAPKRWIYDTSKVASGVPARFSGSGSGTDYSLTINSLEAEDAATYYCQQWSSNPLTFGGGTKVEIK
notes: chains put together from parts; IgG4, kappa; also called CEA-CD3 bispecific antibody 310; not shown: kappa light chain constant domain (CL)
In the case of B3, the EC50 was 0.181 µg/mL and 1.39 nM.

B4: 301 (TA2), configuration of FIG. 1W (bispecific antibody, IgG4)
heavy: QVQLVQSGGGVVQPGRSLRLSCKASGYTFTRYTMHWVRQAPGKGLEWIGYINPSRGYTNYNQKVKDRFTISRDNSKNTAFLQMDSLRPEDTGVYFCARYYDDHYCLDYWGQGTPVTVSSASTKGPSVFPLAPCSRSTSESTAALGCLVKDYFPEPVTVSWNSGALTSGVHTFPAVLQSSGLYSLSSVVTVPSSSLGTKTYTCNVDHKPSNTKVDKRVESKYGPPCPPCPAPEAAGGPSVFLFPPKPKDTLMISRTPEVTCVVVDVSQEDPEVQFNWYVDGVEVHNAKTKPREEQFNSTYRVVSVLTVLHQDWLNGKEYKCKVSNKGLPSSIEKTISKAKGQPREPQVYTLPPCQEEMTKNQVSLWCLVKGFYPSDIAVEWESNGQPENNYKTTPPVLDSDGSFFLYSRLTVDKSRWQEGNVFSCSVMHEALHNHYTQKSLSLSL
chain: EVQLVESGGGFVQAGESLTLSCTSSTLTFTPYRMAWYRQAPGKQRDLVADISSGDGRTTNYADFAKGRFTISRDNIKNTVFLRMTNLKPEDTAVYYCNTFVSFVGIARSWGQGTQVTVSSESKYGPPCPPCPAPEAAGGPSVFLFPPKPKDTLMISRTPEVTCVVVDVSQEDPEVQFNWYVDGVEVHNAKTKPREEQFNSTYRVVSVLTVLHQDWLNGKEYKCKVSNKGLPSSIEKTISKAKGQPREPQVCTLPPSQEEMTKNQVSLSCAVKGFYPSDIAVEWESNGQPENNYKTTPPVLDSDGSFFLVSRLTVDKSRWQEGNVFSCSVMHEALHNRFTQKSLSLSL
light: DIQMTQSPSSLSASVGDRVTITCSASSSVSYMNWYQQTPGKAPKRWIYDTSKLASGVPSRFSGSGSGTDYTFTISSLQPEDIATYYCQQWSSNPFTFGQGTKLQIT
notes: IgG4, kappa; not shown: kappa light chain constant domain (CL)
As to B4, the EC50 was 0.282 µg/mL and 2.17 nM.
